In paper PMC10786891, “Massively parallel profiling of RNA-targeting CRISPR-Cas13d”:
Substitutions are numbered along the chain they refer to. In names and notes the source's numbering stands.

T1: EsCas13d, nuclease-dead (Eubacterium siraeum, UniProt B0MS50, R295A;H300A;R849A;H854A)
T1 sequence: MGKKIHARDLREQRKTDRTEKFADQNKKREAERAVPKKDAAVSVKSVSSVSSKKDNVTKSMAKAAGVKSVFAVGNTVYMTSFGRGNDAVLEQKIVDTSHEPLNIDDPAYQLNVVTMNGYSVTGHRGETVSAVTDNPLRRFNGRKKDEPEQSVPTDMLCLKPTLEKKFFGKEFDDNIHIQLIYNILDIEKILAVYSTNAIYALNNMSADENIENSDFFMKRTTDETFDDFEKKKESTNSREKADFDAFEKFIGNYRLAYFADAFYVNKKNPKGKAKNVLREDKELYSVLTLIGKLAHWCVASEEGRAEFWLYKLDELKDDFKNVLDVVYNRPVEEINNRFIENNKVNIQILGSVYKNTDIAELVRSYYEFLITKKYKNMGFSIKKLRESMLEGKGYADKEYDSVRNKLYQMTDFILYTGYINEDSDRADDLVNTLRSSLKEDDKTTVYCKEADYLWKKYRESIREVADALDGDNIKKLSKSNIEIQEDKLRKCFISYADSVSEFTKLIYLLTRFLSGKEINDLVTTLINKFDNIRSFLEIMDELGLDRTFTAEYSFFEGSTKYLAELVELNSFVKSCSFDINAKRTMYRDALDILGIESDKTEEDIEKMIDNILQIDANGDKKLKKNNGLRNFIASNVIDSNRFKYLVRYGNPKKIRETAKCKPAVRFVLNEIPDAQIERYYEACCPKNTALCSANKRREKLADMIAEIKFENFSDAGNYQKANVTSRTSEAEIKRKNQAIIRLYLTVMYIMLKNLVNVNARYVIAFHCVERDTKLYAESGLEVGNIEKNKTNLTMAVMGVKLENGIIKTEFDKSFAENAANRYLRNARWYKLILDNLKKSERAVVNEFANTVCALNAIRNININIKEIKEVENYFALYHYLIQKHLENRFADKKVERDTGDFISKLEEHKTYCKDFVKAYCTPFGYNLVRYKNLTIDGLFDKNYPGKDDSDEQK

B1: target 1 insU 3' of 22,insC 3' of 12 (mixed)
RNA 1: CACCCGUGCAAAAAUGCAGGGGUCUAAAACUGAGCGGAUAACCUCUCUAUGG
RNA 2: GGGAAUGGAUCCACAUCUACGAAUUCGUACUCAUAGAGAGGCUUAUCCGCUCACCGAGAUCGGAAGAGCACACGU
B2: target 1 MT 5'PFS GCC 3'PFS UAG (mixed)
RNA 1: B1 RNA 1
RNA 2: GGGAAUGGAUCCACAUCUACGAAUUCGCCCCAUAGAGAGGUUAUCCGCUCAUAGAGAUCGGAAGAGCACACGU
B3: target 1 MT 5'PFS GCG 3'PFS AGG (mixed)
RNA 1: B1 RNA 1
RNA 2: B2 RNA 2 with C29G, U52A, A53G
B4: target 1 MT 5'PFS GUC 3'PFS UGU (mixed)
RNA 1: B1 RNA 1
RNA 2: B2 RNA 2 with C28U, A53G, G54U
B5: target 1 MT 5'PFS GGC 3'PFS CAC (mixed)
RNA 1: B1 RNA 1
RNA 2: B2 RNA 2 with C28G, U52C, G54C
B6: target 1 MT 5'PFS GCG 3'PFS AGC (mixed)
RNA 1: B1 RNA 1
RNA 2: B2 RNA 2 with C29G, U52A, A53G, G54C
B7: target 1 MT 5'PFS GAG 3'PFS AUA (mixed)
RNA 1: B1 RNA 1
RNA 2: B2 RNA 2 with C28A, C29G, U52A, A53U, G54A
B8: target 1 MT 5'PFS UUU 3'PFS AUC (mixed)
RNA 1: B1 RNA 1
RNA 2: B2 RNA 2 with G27U, C28U, C29U, U52A, A53U, G54C
B9: target 1 MT 5'PFS GGC 3'PFS AUG (mixed)
RNA 1: B1 RNA 1
RNA 2: B2 RNA 2 with C28G, U52A, A53U
B10: target 1 MT 5'PFS GUC 3'PFS CCU (mixed)
RNA 1: B1 RNA 1
RNA 2: B2 RNA 2 with C28U, U52C, A53C, G54U
B11: target 1 MT 5'PFS CCA 3'PFS AGU (mixed)
RNA 1: B1 RNA 1
RNA 2: B2 RNA 2 with G27C, C29A, U52A, A53G, G54U
B12: target 1 MT 5'PFS GUG 3'PFS UGA (mixed)
RNA 1: B1 RNA 1
RNA 2: B2 RNA 2 with C28U, C29G, A53G, G54A
B13: target 1 MT 5'PFS GCG 3'PFS AGU (mixed)
RNA 1: B1 RNA 1
RNA 2: B2 RNA 2 with C29G, U52A, A53G, G54U
B14: target 1 MT 5'PFS AUG 3'PFS CAC (mixed)
RNA 1: B1 RNA 1
RNA 2: B2 RNA 2 with G27A, C28U, C29G, U52C, G54C
B15: target 1 MT 5'PFS GUG 3'PFS UGU (mixed)
RNA 1: B1 RNA 1
RNA 2: B2 RNA 2 with C28U, C29G, A53G, G54U
B16: target 1 MT 5'PFS GAC 3'PFS CCU (mixed)
RNA 1: B1 RNA 1
RNA 2: B2 RNA 2 with C28A, U52C, A53C, G54U
B17: target 1 MT 5'PFS GUG 3'PFS UGC (mixed)
RNA 1: B1 RNA 1
RNA 2: B2 RNA 2 with C28U, C29G, A53G, G54C
B18: target 1 MT 5'PFS GCG 3'PFS AGA (mixed)
RNA 1: B1 RNA 1
RNA 2: B2 RNA 2 with C29G, U52A, A53G, G54A
B19: target 1 MT 5'PFS GGC 3'PFS AAG (mixed)
RNA 1: B1 RNA 1
RNA 2: B2 RNA 2 with C28G, U52A
B20: target 1 C4G,G15A (mixed)
RNA 1: B1 RNA 1
RNA 2: B2 RNA 2 with C28U, C29A, G37A, C48G, U52C, A53C
B21: target 1 MT 5'PFS GAG 3'PFS AUU (mixed)
RNA 1: B1 RNA 1
RNA 2: B2 RNA 2 with C28A, C29G, U52A, A53U, G54U
B22: target 1 MT 5'PFS GGC 3'PFS AUU (mixed)
RNA 1: B1 RNA 1
RNA 2: B2 RNA 2 with C28G, U52A, A53U, G54U
B23: target 1 MT 5'PFS GGC 3'PFS AUA (mixed)
RNA 1: B1 RNA 1
RNA 2: B2 RNA 2 with C28G, U52A, A53U, G54A
B24: target 1 MT 5'PFS GAG 3'PFS AUC (mixed)
RNA 1: B1 RNA 1
RNA 2: B2 RNA 2 with C28A, C29G, U52A, A53U, G54C
B25: target 1 MT 5'PFS AGC 3'PFS AGG (mixed)
RNA 1: B1 RNA 1
RNA 2: B2 RNA 2 with G27A, C28G, U52A, A53G
B26: target 1 MT 5'PFS GGC 3'PFS AUC (mixed)
RNA 1: B1 RNA 1
RNA 2: B2 RNA 2 with C28G, U52A, A53U, G54C
B27: target 1 MT 5'PFS CCU 3'PFS ACC (mixed)
RNA 1: B1 RNA 1
RNA 2: B2 RNA 2 with G27C, C29U, U52A, A53C, G54C
B28: target 1 C2A,A14C (mixed)
RNA 1: B1 RNA 1
RNA 2: B2 RNA 2 with C28U, C29A, A38C, C50A, U52C, A53C
B29: target 1 MT 5'PFS GUC 3'PFS CCA (mixed)
RNA 1: B1 RNA 1
RNA 2: B2 RNA 2 with C28U, U52C, A53C, G54A
B30: target 1 MT 5'PFS GUC 3'PFS UGA (mixed)
RNA 1: B1 RNA 1
RNA 2: B2 RNA 2 with C28U, A53G, G54A
B31: target 1 MT 5'PFS GUC 3'PFS CCG (mixed)
RNA 1: B1 RNA 1
RNA 2: B2 RNA 2 with C28U, U52C, A53C
B32: target 1 MT 5'PFS GUC 3'PFS CCC (mixed)
RNA 1: B1 RNA 1
RNA 2: B2 RNA 2 with C28U, U52C, A53C, G54C
B33: target 1 insG 3' of 9,insU 3' of 1 (mixed)
RNA 1: B1 RNA 1
RNA 2: GGGAAUGGAUCCACAUCUACGAAUUCGUACCAUAGAGAGGUUAGUCCGCUCAUCCGAGAUCGGAAGAGCACACGU
B34: target 1 MT 5'PFS GUG 3'PFS UGG (mixed)
RNA 1: B1 RNA 1
RNA 2: B2 RNA 2 with C28U, C29G, A53G

These binders were tested against T1, EsCas13d, nuclease-dead (assay: crRNA (strand 1, pre-loaded); Mg2+; 40 mM Tris-HCl pH 7.5, 150 mM NaCl, 6 mM MgCl2, 1 mM DTT, 0.1% Tween-20, 0.2 mg/ml BSA; 25 C; 10 min per concentration, then washed). Details: tags: His6-TwinStrep-SUMO cleaved; N-terminal SNAP kept (SNAP-Surface 488); label: 3' end held by stalled T7 RNA polymerase.

Binder	Kd [nM]
B1	92 ± 34
B2	21.8 ± 6.1
B3	100 ± 50
B4	21.5 ± 5
B5	~17
B6	37 ± 11
B7	34 ± 8.5
B8	55 ± 18
B9	22.5 ± 7
B10	15.3 ± 2.6
B11	14 ± 5.9
B12	14.9 ± 1.15
B13	29.5 ± 7
B14	~29.5
B15	27.1 ± 2.4
B16	~14
B17	9.4 ± 0.45

Binder	Kd [nM]
B18	26.4 ± 4.8
B19	36 ± 10
B20	13.2 ± 1.2
B21	36 ± 11
B22	19.6 ± 4.75
B23	16.6 ± 2.05
B24	~60
B25	~60
B26	42.5 ± 8.5
B27	~14
B28	48.7 ± 3.1
B29	~18
B30	14.7 ± 3.4
B31	14.8 ± 2.55
B32	19 ± 9
B33	23.3 ± 3.4
B34	110 ± 19.5
